Source: US5550216A, “Gelatinase A inhibitor, and analytical reagent thereof for the determination of gelatinase A” (Oriental Yeast Co., Ltd., priority 1993, dated 1996)

T1: gelatinase A (Homo sapiens, UniProt P08253)
T1 construct: made in house; host or cells: Natural (endogenous) secretion of the T98G human glioblastoma cell line
T1 sequence (P08253 110-660): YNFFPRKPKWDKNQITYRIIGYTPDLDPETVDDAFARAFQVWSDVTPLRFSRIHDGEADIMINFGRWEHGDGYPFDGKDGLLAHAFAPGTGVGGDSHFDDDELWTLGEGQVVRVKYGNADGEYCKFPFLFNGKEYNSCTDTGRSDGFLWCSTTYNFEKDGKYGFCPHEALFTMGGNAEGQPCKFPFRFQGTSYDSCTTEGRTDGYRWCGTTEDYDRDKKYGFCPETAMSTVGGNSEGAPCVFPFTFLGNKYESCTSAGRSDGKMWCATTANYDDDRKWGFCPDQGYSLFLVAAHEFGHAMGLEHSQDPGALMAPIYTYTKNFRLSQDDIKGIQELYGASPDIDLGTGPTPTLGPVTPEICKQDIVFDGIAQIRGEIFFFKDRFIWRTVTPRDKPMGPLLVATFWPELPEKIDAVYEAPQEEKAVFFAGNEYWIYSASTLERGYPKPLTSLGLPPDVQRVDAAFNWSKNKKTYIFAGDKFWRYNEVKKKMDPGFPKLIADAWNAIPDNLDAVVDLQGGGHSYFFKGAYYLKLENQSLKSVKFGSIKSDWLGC

T2: human progelatinase A (Homo sapiens, UniProt P08253)
T2 construct: obtained from the culture supernatant of T98G human glioblastoma cell line; made in house; host or cells: Natural (endogenous) secretion of the T98G human glioblastoma cell line, purified from the culture supernatant
T2 sequence (P08253 110-660): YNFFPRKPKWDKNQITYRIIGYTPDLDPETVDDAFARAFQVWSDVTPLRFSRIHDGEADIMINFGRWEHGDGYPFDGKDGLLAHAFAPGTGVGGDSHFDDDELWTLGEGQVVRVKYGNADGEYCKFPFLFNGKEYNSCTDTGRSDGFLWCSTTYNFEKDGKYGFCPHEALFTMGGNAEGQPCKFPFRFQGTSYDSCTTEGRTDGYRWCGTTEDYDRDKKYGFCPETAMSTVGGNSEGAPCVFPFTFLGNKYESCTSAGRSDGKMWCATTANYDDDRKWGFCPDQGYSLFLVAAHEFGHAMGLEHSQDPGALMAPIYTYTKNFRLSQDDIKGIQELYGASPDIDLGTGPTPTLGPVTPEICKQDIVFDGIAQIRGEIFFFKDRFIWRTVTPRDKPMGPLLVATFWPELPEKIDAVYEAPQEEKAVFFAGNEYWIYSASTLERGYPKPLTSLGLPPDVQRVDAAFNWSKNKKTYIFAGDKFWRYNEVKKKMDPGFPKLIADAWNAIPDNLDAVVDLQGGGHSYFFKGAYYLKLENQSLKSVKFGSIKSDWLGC

B1: gelatinase A (Homo sapiens) (protein)
chain: YNFFPRKPKWDKNQITYRIIGYTPDLDPETVDDAFARAFQVWSDVTPLRFSRIHDGEADIMINFGRWEHGDGYPFDGKDGLLAHAFAPGTGVGGDSHFDDDELWTLGEGQVVRVKYGNADGEYCKFPFLFNGKEYNSCTDTGRSDGFLWCSTTYNFEKDGKYGFCPHEALFTMGGNAEGQPCKFPFRFQGTSYDSCTTEGRTDGYRWCGTTEDYDRDKKYGFCPETAMSTVGGNSEGAPCVFPFTFLGNKYESCTSAGRSDGKMWCATTANYDDDRKWGFCPDQGYSLFLVAAHEFGHAMGLEHSQDPGALMAPIYTYTKNFRLSQDDIKGIQELYGASPDIDLGTGPTPTLGPVTPEICKQDIVFDGIAQIRGEIFFFKDRFIWRTVTPRDKPMGPLLVATFWPELPEKIDAVYEAPQEEKAVFFAGNEYWIYSASTLERGYPKPLTSLGLPPDVQRVDAAFNWSKNKKTYIFAGDKFWRYNEVKKKMDPGFPKLIADAWNAIPDNLDAVVDLQGGGHSYFFKGAYYLKLENQSLKSVKFGSIKSDWLGC
notes: made in house; host or cells: Natural (endogenous) secretion of the T98G human glioblastoma cell line

Assays:
gelatinase A = biological target: T1, gelatinase A; assay: Hydrolysis of synthetic peptide βAP10-20 by activated gelatinase A (reverse phase HPLC), enzyme kinetic analysis; type: biochemical; conditions: hydrolysis of β-AP10-20 by APMA/stromelysin activated gelatinase A; from slope of Dixon plot (1/v vs (I))
Description: (§1) FIGS. 5 (A) and (B) show the degradation of synthetic peptide βAP10-20by gelatinase A. By heparin affinity chromatography according to the method by (Kelkenbrock), TIMP-2-free progelatinase A was isolated from TIMP-2 binding form. Proenzyme (1 μg) was activated by incubating for 1 hour at 37° C. in 20 mMTris-HCl (pH 7.5) containing 10 mMCa^2+ with 1 mMAPMA and 0.25 μg of rat stromelysin. Then, the activated enzyme was incubated for 6 hours at 37° C. in the absence or presence of 5 μg of 100-kDa APP in 50 μl of Tris-HCl/Ca^2+ buffer with 20 nmol (28 μg) of synthetic peptide β-AP10-20 (cf. FIG. 2D). Then the mixture was admixed with 0.5 ml of 0.05% trifluoroacetic acid (TFA), and loaded to Cosmosil 5C18 reverse phase HPLC column (4.6×150 mm) (Nacalai Tesque, Kyoto, Japan). The column was eluted at the flow rate of 0.5 ml/min with 15 ml of 0 to 80% linear gradient acetonitrile in 0.05% TFA. The amino acid sequence of the […] was analyzed by a protein sequencer. As previously reported, rat stromelysin was purified with the proenzyme form and activated by APMA. Under the condition described above, stromelysin hardly hydrolyzed βAP10-20.
(§2) FIG. 5(A) and (B) represent enzyme kinetic analysis of the inhibition of gelatinase A activity by 100-bDa APP. […] The maximum concentration of 100-kDa APP ([…]) corresponded to about 910 nM. […]

human progelatinase A = biological target: T2, human progelatinase A; assay: Reverse zymography of gelatinase A inhibitor on gelatine-containing SDS polyacrylamide gel; type: biochemical; conditions: 0.2 μg/lane protein; gel incubated with 1 μg/ml human progelatinase A and 1 mM APMA
Excerpt: The large triangle arrow represents 100-kDa inhibitor. Three small triangle arrows represent TIMP (28 kDa), unidentified 22-kDa inhibitor and TIMP-2 (20 kDa). The bands of negative image (white lines) indicate gelatine degradation activity secreted by tumor cells. b represents the results of non-reductive SDS-PAGE of purified 100-kDa inhibitor, while c represents the results of SDS-PAGE (lanes 1 to 3) and the reverse zymograms of 100-kDa inhibitor (lane 1, 2, 4 and 5) and human TIMP (lane 3 and 6). Equal amount (0.2 μg/lane) of the protein was analyzed under reductive condition (lanes 2 and 5) and non-reductive condition (lane 1, 3, 4 and 6). […] 100-kDa inhibitor (200 μg) was incubated with 0.3 μg of endoproteinase Lys-C (Sigma, St. Louis, Mo.) for 60 minutes at 30° C. in 60 μl of 50 mM Tris-HCl (pH 7.5) containing 2M urea and 1M NaCl, and a part of digestion products were subjected to electrophoresis. As a result, a peptide from 439V through 687 k of the amino acid sequence in FIG. 1 was obtained.
The supernatant of EJ-1 cell culture which had been incubated for 2 days in serum-free RPMI1640 medium was used for the preparation. The reverse zympgraphy of gelatinase A inhibitor was conducted on polyacrylamide gel containing 0.1% SDS and 1 mg/ml of gelatine by a modified Herroh's method. […]

[1] = substrate: CC(C)C[C@H](NC(=O)[C@H](CCCCN)NC(=O)[C@H](CCC(N)=O)NC(=O)[C@H](Cc1c[nH]cn1)NC(=O)[C@H](Cc1c[nH]cn1)NC(=O)[C@@H](NC(=O)[C@H](CCC(=O)O)NC(=O)[C@@H](N)Cc1ccc(O)cc1)C(C)C)C(=O)N[C@H](C(=O)N[C@@H](Cc1ccccc1)C(=O)N[C@@H](Cc1ccccc1)C(=O)O)C(C)C; assay: Hydrolysis of synthetic peptide βAP10-20 by activated gelatinase A (reverse phase HPLC), enzyme kinetic analysis; type: biochemical, human; conditions: other: hydrolysis of βAP10-20 by activated gelatinase A; Lineweaver-Burk plots, 30 to 400 μM substrate; pH 7.5
Description: as §1, §2

| Molecule | Ki (gelatinase A) [nM] | inhibitor bands on the reverse zymograms (human progelatinase A) | Km [1] [µM] | Vmax [1] [nmol/h] |
| --- | --- | --- | --- | --- |
| 100-kDa APP: secretory form of APP (gelatinase A inhibition protein), 100k, from EJ-1 culture fluid; 18L through 687K of APP770 | 40 | markedly stained gelatine bands (inhibitor bands) | – | – |
| human TIMP: known gelatinase inhibitor (28 kDa) used as comparison in reverse zymography [reference compound] | – | markedly stained gelatine bands (inhibitor bands) | – | – |
| B1 | – | – | 130 | 3.9 |
